According to the DeepSol protein solubility set:

Assay: soluble on expression in E. coli; label from the status in PepcDB or PDB records

Question: Which “soluble on expression in E. coli” value does the source give for “MVTPIAVVGPTASGKSALGIALAHKLDGEVVNVDSMQLYKGMDIGTAKLTVEEREGIAHHQLDVWDVTETASVARFQSDAVADVEDIMSRGKTPILVGGSMLYVQSLVDDWQFPPTDSAVRARFEARLADIGVEALHAELTQLDPEAAAVIESNDPRRTVRALEVIELTGQPFQASQPPKDAPPRWGTRIIGLKTTPEWLNPRIEQRTARMFEQGFVAEVEHLVQQGLIADSTAGRAIGYSQVLAAMAGEMTWEDAFERTVTGTRRYVRRQRSWFNRDHRVSWVDASGDPTAQALEILGLQLEHHHHHH” here?
Answer: Its value is “soluble”.

Question: Which “soluble on expression in E. coli” value does the source give for “MSRSRKPDWLKMRPPSGERFTDIKQTLRDRNLNTVCEEANCPNLGECWSGRDGPGTATFMLMGDRCSRGCNFCDVETGGMDPLDPDEPQQVADAVAEIGLDYVVLTSVDRDDLPDQGASHFAETIRAIKERDPSILVECLIPDFQGEPDLVRKIIDADPDVIAHNIETVDRLQWPVRDRRAGYEQSLSVLRQVNRESDCYSKTSLMLGVGEYAHEVYQTLSDLRQAGVDVVTFGQYLQPSRSHLEVSEYVHPDAFDTWQQVAEAEFDFLYCASGPMVRSSYRAGELFVESVLREGRSADEARAEVRAND” here?
Answer: The value was “not soluble”.

Question: For “MQGLQLPQIYFSAAERRPKFVMKTGLSATEKNEVIKAAYRQIFERDITRAYSLSISDLESKVKNGDISMKEFVRRLAKSPLYQKQFYQPFINSRVIELAFRHILGRGPSSREEVQKYFSIISNGGLPALVDALVDSAEYSDYFGEETVPYLRGLGQEALEHHHHHH”, which “soluble on expression in E. coli” value is on record?
Answer: The value was “not soluble”.

Question: With “MKTIIREMVETIKQLFAQKQQMQEPVVANYEVSEIVEQKTLKKKEESEKTGEKTGKSNKWSQSLTLQLKEYLNDNFDFRYNNLTGATEYREKSGKNCFRPIDEREMNGMIVDARLEGIPCWRGDVPTMVLSNKVESYNPFHLYVKELPGWDGVDRVTPLLLRVSDNEIWLRGGRCWLRAMLSQWSGEERLHANVLTPVLISGKQGLSKSTFCRLLMPDSLRHYFIDNLNLAAGSSPEKKLVKNGLINLDEFDKIKESQQATLKNLLQMVNVPVFRGKRLGWVNESRLASFIATTNVYQVLIDSTGSRRFLCVEVLKPISEEPLEHKQIYAQLKEELKSGAPDYLNKEEEKALQKHNKAYYRQSLLEDVFHCCFRHPLETEKGIWLTTAEIFQVMRKFNSAALKEVSARQLGLKLSAMGYMAKHTSFGNRYYVFNLSAEKKDASL” as the sequence, how does the “soluble on expression in E. coli” value read?
Answer: The value was “not soluble”.

Question: For “MYLRPDEVARVLEKAGFTVDVVTNKTYGYRRGENYVYVNREARMGRTALIIHPRLKDRSSSLADPASDIKTCDHYQNFPLYLGGETHEHYGIPHGFSSRIALERYLNGLFGDEKTD”, which “soluble on expression in E. coli” value is on record?
Answer: The value was “not soluble”.

Question: Which “soluble on expression in E. coli” value does the source give for “MGDNGTGIECIGLPPGFSIDYYAEGVEGARSMALSPEGTLFAGSRGAGKLYAMTDRNGDNKADDVLVIAEGLDMPNGVAFRNGSLYVAEISRVLRYDDIEARLENPPDPAVVRGDFPADRSHGWKYIKFGPDGKLYVPVGMPCNVCNLEEEEERYGTMMRMEPDGSQPEIFARGIRNTVGFAWNPETGELWFTDNGRDWLGDDLPPDELNRAPVPGMHFGFPYCHGKDTPDPEYGEFRNCSEFTAPEVELGPHVAALGMTFYNGSMFPEEYRNQIFIAEHGSWNRKIPIGYRVSLVRLENGTPVSYEPFADGWLQGLASWGRPVDVLVMPDGALLVSDDKNNAIYRISLEHHHHHH” here?
Answer: The value was “not soluble”.

Question: With “MILRASVLSALLLVGLGAAPKHSVSANDKRMQDNLVSVIEKQTNKKVRILEIKPLKSSQDLKMVVIEDPDTKYNIPLVVSKDGNLIIGLSNIFFSNKSDDVQLVAETNQKVQALNATQQNSAKLNAIFNEIPADYAIELPSTNAANKDKILYIVSDPMCPHCQKELTKLRDHLKENTVRMVVVGWLGVNSAKKAALIQEEMAKARARGASVEDKISILEKIYSTQYDINAQKEPEDLRTKVENTTKKIFESGVIKGVPFLYHYKA” as the sequence, how does the “soluble on expression in E. coli” value read?
Answer: Its value is “not soluble”.

Question: Which “soluble on expression in E. coli” value does the source give for “MNEAEQELYEALVAICQTSGFLLLEELPTDLPDQPFVYLGDSKELPKPTKSAILGEIELIMHVYGALSERQQISTIKGTILRQATSNLKRTAHFNWGIKHQEVKAQMVKDTKQMKKTIWHAVLPLHMQFY” here?
Answer: Its value is “not soluble”.

Question: Which “soluble on expression in E. coli” value does the source give for “MSLDVTLTQPSIPDQSEDRRVRTSGSLAGHLPYGMADTLGKHEHLSTVDLVVPRFNASETEMLLGLFDGQALSSGGSKIAKYLHENFGHIFALELKALKTRLNETPVDALRRAFLALNKDLVTIAIQQSEERPIQTHRNSGQPIILTKEDLNSGGVATVVYLQSTELYVANVGDAQAMVIQTDGTHKMLTRKHDPAEPTERSRIREAGGWVSRNGRLNDLLQVSRAFGYVDLMPAVQAAPYVSNMTIREQDDIILIATGELWEYLSPGLVTDVARAERQDLMRAAQKLRDLAIAYGASGKIMVMMISVADEGHHHHHH” here?
Answer: The value was “soluble”.

Question: With “MSLSELHALLTFPERPISQSYYVPKLQHFLKSGIPATYTLEQVAAFEHEEKNRNGDKEFRESTDDNKTSNTTPLHVLARSLPLDIKDEELQVVMDMMNILFEYGAGWNFIDYEDKTVGDLFLERNQSRESPLYRRLVEAGVSAELLLRKLNGGDVEFLDTDELIGIEPEESVQTAVDGQKEESVGSDDDATAANQQVYLKTELEYKDDALITKENKDGVMMDWETKIMELASETLFPDPEATNSATILNIGFGMGIIDTFIQARKPYRHYICEAHPDVLAKMKMDGWYEKDNVVILEGRWQDTLNNLLDKGEVFFDGIYYDTFSEHYQDILDLYDVVVGLIKPEGVFSFFNGLGADRSLCYDVYKEIVEIDVATYGMKCDYTRYSLDEQLPDWNDVKRSYFNCNYYYHPRITFAEGHHHHHH” as the sequence, how does the “soluble on expression in E. coli” value read?
Answer: Its value is “not soluble”.

Question: Which “soluble on expression in E. coli” value does the source give for “MQQLLISILEDLNNTSTDIIASAVISTDGLPMATMLPSHLNSDRVGAISATLLALGSRSVQELACGELEQVMIKGKSGYILLSQAGKDAVLVLVAKETGRLGLILLDAKRAARHIAEAI” here?
Answer: Its value is “not soluble”.

Question: Which “soluble on expression in E. coli” value does the source give for “MTTNEEFIRTQIFGTVFEITNRYNDLNPVGMGAFGLVCSATDTLTSQPVAIKKIMKPFSTAVLAKRTYRELKLLKHLRHENLICLQDIFLSPLEDIYFVTELQGTDLHRLLQTRPLEKQFVQYFLYQILRGLKYVHSAGVIHRDLKPSNILINENCDLKICDFGLARIQDPQMTGYVSTRYYRAPEIMLTWQKYDVEVDIWSAGCIFAEMIEGKPLFPGKDHVHQFSIITDLLGSPPKDVINTICSENTLKFVTSLPHRDPIPFSERFKTVEPDAVDLLEKMLVFDPKKRITAADALAHPYSAPYHDPTDEPVADAKFDWHFNDADLPVDTWRVMMYSEILDFHKIGGSDGQIDISATFDDQVAAATAAAAQAQAQAQAQVQLNMAAHSHNGAGTTGNDHSDIAGGNKVSDHVAANDTITDYGNQAIQYANEFQQ” here?
Answer: The value was “soluble”.

Question: For “SFAKTGQLFNQTHLEEKKEIAQKAIQFIQEGDSIILDSGSTTTEIAKLLMNYKDLTVITNALNIALILGENHGINLIVTGGEFKAPTLSLTGKMAADSFKDIRANKLFLATAGISSDMKLTYPSLSDLVVKSAMIESASKVYLVADCSKI”, which “soluble on expression in E. coli” value is on record?
Answer: Its value is “not soluble”.

Question: Which “soluble on expression in E. coli” value does the source give for “MGDGKPHTAQQTIPYLQMYPDGICRVTEKKYSKSLVFEDINYQLAQADDKTAIFENWCDFLNYFDASVSVQLSFINQGARQEKAQAAIEIPAQDDAFNSIRKEYADMLKNQLEKGNNGLEKCKYITFSIEADNLAAAKARLSRIETDVLNNFKVLGVTARPMNGQERLNVLHGIFHPAGEPFRFSWDWLVPSGLTTKDFIAPSSFHFGDGRTFRMGKKLGAVSFLEILAPELNDRMLSDILDLENGIIVNLHIRSIDQSEAIKTIKRKITDLDKMKIEEQKKAVRSGYDMDIIPSDLATFGSEAKNLLQDLQSRNERMFLLTFLVANMADTKRKLENDIFATAGFAQKNNCALTRLDYLQEAGFMSSIPLGENLIPIQRGLTTSSTAIFIPFITQELFQRGAALYYGLNALSNNMILCDRKQLKNPNGLILGTPGSGKSFAAKREITNIFLITDDDIIICDPEAEYYPLVERLHGQVVHISPTSRHYVNPMDINLNYSEDDNPLALKSDFILSLCELVIGGKEGLQPVEKTVIDRAVRNVYRPFLADPDPAKMPILGDLYNELLKQPEPEAARIAAALELYVSGSLNVFNHRTNVELSNRLVCFDIKQLGKQLKKLGMLIVQDQVWNRVTLNRAEKKATRYYMDEFHLLLKEEQTAAYSVEIWKRFRKWGGIPTAITQNVKDLLSSREVENIFENSDFVLMLNQAQGDRAILAKQLNISPQQMKYVTHTEAGEGLIFYGNVVLPFIDRFPTNTELYRLLTTKPEEVSKPLEHHHHHH” here?
Answer: Its value is “soluble”.

Question: Which “soluble on expression in E. coli” value does the source give for “SNAMGKKIRTEEVDHLFEAILCLKNKEECYTFFEDVCTINELLSLSQRFEVAKMLTDKRTYLDISEKTGASTATISRVNRSLNYGNDGYEMVFSRMKEKETAGKTEE” here?
Answer: Its value is “soluble”.

Question: With “MGSDKIHHHHHHMSLRRIMVTAVRNLHPVTLLPSPRINILYGANGSGKTSVLEAVHLLGLARSFRSTRLNPVIQYEQAACTVFGEVQLTEGGTSNLGVSRERQGEFTIRIDGQNARSAAQLAELLPLQLINPDSFRLLEGAPKIRRQFLDWGVFHVEPRFLPAWQRLQKALRQRNSWLRHGTLDPASQAAWDRELCLASAEIDEYRRNYIKALKPVFERTLSELVELDGLTLSYYRGWDKDRELQEVLASSLLRDQQMGHTQAGPQRADLRLRLAGNNAADILSRGQQKLVVCALRIAQGHLVSQARRGHCIYLVDDLPSELDDQHRRALCRLLEELRCQVFITCVDHELLREGWQTETPVALFHVEQGRITQTHDHRE” as the sequence, how does the “soluble on expression in E. coli” value read?
Answer: The value was “not soluble”.

Question: With “MGVPAFFRWLTKKYPATVVNANEDRQRDQDGNRVPVDCTQPNPNFQEFDNLYLDMNGIIHPCTHPEDRPAPKNEDEMFALIFEYIDRIYSIVRPRRLLYMAIDGVAPRAKMNQQRSRRFRASKEMAEKEASIEEQRNRLMAEGIAVPPKKKEEAHFDSNCITPGTPFMARLADALRYYIHDRVTNDASWANIEIILSDANVPGEGEHKIMDYVRKQRGNPAHDPNTVHCLCGADADLIMLGIATHEANFNIIREEFVPNQPRACDLCGQYGHELKECRGAENETDLGDDYCKPEQREKNFIFLRIPVLREYLEKELSMPNLPFKFDVERALDDWVFLCFFVGNDFLPHLPSLEIREGAIDRLIKLYKEMVYQMKGYLTKDGIPELDRVEMIMKGLGRVEDEIFKRRQQDEERFQARMCREESPADIASRKRKAEQPLIKPEEEEDEGPKDDIRLYESGWKDRYYRAKFDVGSDDIEFRHRVAWAYVEGLCWVLRYYYQGCASWDWYFPYHYAPFASDFETVGEFQPDFTRPTKPFNPLEQLMSVFPAASKQHLPVEWQKLMIQDDSPIIDLYPADFRIDLNGKKYAWQGVALLPFVDETRLLATLQSVYPTLTAEEKQRNTRGPNRIFIGRNHKSFEFFQQVAESKSDDLVPLDPTLLNGVSGKIAYDSTATAPGLPFVSPVNHDECQDLPTNCGICVLYEDPEYPQDYIFPALRLDGAKEPEKTLKPDDWNDRRDGRYQPQVGFNRNAPRGSLDQSGHRQVHHYVRGGGGGGGGYRGNSYDDRRGGGGGGGGYNDRQDFGRNYGGRDGGGPQRYHDQQQQRQGGYQGGGYGGGYGGGGGGGGGGGGGSYHQPYNQDQRRGGRGGGGGPPGYQRPPYRGGGGGGYHGNSSWR” as the sequence, how does the “soluble on expression in E. coli” value read?
Answer: The value was “not soluble”.

Question: With “MSQFISLTQYQLIEVQGADAEKYLQGQLTSDVVRLASGATTLTAHCDPKGKMNAIYRLFKVSSEQFFLLVKKDILPSGLDALKKYAVFSKVSFDLRDWQIIGVIGEKCGKITPNFSLEIDEKRSILLNETELPVNFNGDEKIWEVADIQAGLPNLSPQTQNEFIPQALNLQAIEQAISFTKGCYIGQETVARAKYRGANKRAMFIFKVQTQQEAEIGSEIEMQLEANWRKTGTITSAVNLDGVLWLQVVMNNDIDSEQQFRLLNSEILLERVQLPYSITE” as the sequence, how does the “soluble on expression in E. coli” value read?
Answer: Its value is “not soluble”.
